Test results from patent US20170296524A1 (KLINIKUM RECHTS DER ISAR DER TECHNISCHEN UNIVERSITAT MUNCHEN, published 2017).

B4: MCT1 (monocarboxylate transporter 1), endogenous (other, human, UniProt P53985 1-500, looked up)
chain: MPPAVGGPVGYTPPDGGWGWAVVIGAFISIGFSYAFPKSITVFFKEIEGIFHATTSEVSWISSIMLAVMYGGGPISSILVNKYGSRIVMIVGGCLSGCGLIAASFCNTVQQLYVCIGVIGGLGLAFNLNPALTMIGKYFYKRRPLANGLAMAGSPVFLCTLAPLNQVFFGIFGWRGSFLILGGLLLNCCVAGALMRPIGPKPTKAGKDKSKASLEKAGKSGVKKDLHDANTDLIGRHPKQEKRSVFQTINQFLDLTLFTHRGFLLYLSGNVIMFFGLFAPLVFLSSYGKSQHYSSEKSAFLLSILAFVDMVARPSMGLVANTKPIRPRIQYFFAASVVANGVCHMLAPLSTTYVGFCVYAGFFGFAFGWLSSVLFETLMDLVGPQRFSSAVGLVTIVECCPVLLGPPLLGRLNDMYGDYKYTYWACGVVLIISGIYLFIGMGINYRLLAKEQKANEQKKESKEEETSIDVAGKPNEVTKAAESPDQKDTDGGPKEEESPV
notes: Endogenous protein in HEK 293T or MM1S cell lysates

Assays:
[1] = biological target: T1, HA-CUL4A (UniProt Q13619 1-759, limits assumed); assay: HA-CUL4A purified from HEK293T cells, incubated with MM1S extracts, immunoblot
T1 construct: Purified from HEK293T cells and incubated with MM1S cell extracts; not shown: HA tag
T1 sequence (Q13619 whole entry): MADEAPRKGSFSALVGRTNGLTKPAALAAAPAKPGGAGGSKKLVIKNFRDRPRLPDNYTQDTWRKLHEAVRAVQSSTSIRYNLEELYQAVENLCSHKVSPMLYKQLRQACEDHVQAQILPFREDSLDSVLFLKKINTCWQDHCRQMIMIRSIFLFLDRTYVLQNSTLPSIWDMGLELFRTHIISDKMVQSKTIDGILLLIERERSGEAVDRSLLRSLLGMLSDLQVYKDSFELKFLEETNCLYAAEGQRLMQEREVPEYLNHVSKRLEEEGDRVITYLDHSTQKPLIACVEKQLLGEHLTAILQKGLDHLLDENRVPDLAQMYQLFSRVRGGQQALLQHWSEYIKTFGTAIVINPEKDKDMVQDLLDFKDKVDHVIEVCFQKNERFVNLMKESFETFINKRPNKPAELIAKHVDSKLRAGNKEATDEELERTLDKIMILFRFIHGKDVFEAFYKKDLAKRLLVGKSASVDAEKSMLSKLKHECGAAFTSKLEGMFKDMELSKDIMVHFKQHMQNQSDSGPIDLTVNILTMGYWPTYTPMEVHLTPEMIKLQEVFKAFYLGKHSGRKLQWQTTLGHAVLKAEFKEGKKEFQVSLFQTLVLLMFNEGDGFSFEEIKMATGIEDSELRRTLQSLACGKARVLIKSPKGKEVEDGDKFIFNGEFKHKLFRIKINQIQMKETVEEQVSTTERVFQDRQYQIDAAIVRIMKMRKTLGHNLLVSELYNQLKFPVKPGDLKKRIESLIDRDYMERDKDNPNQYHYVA
Excerpt: Bound protein fractions were subjected to immunoblot analysis using the indicated antibodies.

[2] = biological target: T2, FLAG-MCT1 (human, UniProt P53985 1-500); assay: FLAG-MCT1 immunoprecipitation from cycloheximide-treated HEK293T cells, immunoblot (FIG. 13G)
T2 construct: Expressed in HEK293T cells; The tag is written first only because the name prints it so; also called Flag-tagged MCT1; not shown: FLAG tag
T2 sequence (looked up): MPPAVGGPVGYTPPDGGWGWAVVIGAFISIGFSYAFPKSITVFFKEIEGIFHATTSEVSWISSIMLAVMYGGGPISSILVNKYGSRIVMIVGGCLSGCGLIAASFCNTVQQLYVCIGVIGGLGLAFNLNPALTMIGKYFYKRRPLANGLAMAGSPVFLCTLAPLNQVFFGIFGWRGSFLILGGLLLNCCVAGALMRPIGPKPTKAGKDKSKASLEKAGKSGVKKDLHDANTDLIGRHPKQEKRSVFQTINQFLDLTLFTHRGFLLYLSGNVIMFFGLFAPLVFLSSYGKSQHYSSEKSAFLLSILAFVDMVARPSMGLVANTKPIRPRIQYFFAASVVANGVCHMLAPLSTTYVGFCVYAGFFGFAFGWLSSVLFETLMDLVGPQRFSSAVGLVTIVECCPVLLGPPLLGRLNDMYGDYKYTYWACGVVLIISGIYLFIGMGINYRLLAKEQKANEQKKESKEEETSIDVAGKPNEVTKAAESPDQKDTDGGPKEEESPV

[3] = biological target: T3, Cereblon (CRBN), human, wild type, without tag (endogenous or expressed from plasmid) (human, UniProt Q96SW2 1-442); assay: co-immunoprecipitation
T3 construct: Endogenous protein in HEK 293T or MM1.S/MM1S lysates, or untagged wild-type CRBN re-expressed in CRBN-/- HEK 293T cells; also called CRBN WT; endogenous CRBN
T3 sequence (Q96SW2 whole entry): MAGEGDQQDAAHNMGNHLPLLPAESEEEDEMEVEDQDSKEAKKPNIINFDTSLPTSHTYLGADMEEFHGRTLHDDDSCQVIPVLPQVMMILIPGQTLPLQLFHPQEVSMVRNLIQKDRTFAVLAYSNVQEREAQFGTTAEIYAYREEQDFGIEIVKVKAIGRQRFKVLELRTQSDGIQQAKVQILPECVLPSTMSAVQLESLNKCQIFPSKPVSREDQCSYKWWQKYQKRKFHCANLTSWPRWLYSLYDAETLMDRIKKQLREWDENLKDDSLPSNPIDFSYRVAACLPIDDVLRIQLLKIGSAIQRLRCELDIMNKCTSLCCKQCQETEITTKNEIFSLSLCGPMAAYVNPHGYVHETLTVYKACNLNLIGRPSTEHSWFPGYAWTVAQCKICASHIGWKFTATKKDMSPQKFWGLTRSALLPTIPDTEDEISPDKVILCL

[4] = biological target: T4, Strep-Flag tagged CRBN (CRBN-SF) (human, UniProt Q96SW2 1-442); assay: tandem affinity purification (Strep, then Flag) from HEK 293T cells, mass spectrometry
T4 construct: Tag put at the C-terminus from the vector's name (pcDNA-C-SF-TAP); also called CRBN-SF-TAP; CRBN-tandem-Strep-FLAG-tagged; not shown: tandem Strep-FLAG tag of vector pcDNA-C-SF-TAP
T4 sequence (Q96SW2 whole entry): as above

[5] = biological target: T2, FLAG-MCT1; assay: Flag-bead immunoprecipitation of Flag-MCT1 from HEK 293T cells with or without co-expressed CRBN, Western blot for CD147
[6] = biological target: B4; assay: FLAG-CD147 immunoprecipitation from cycloheximide-treated HEK293T cells, immunoblot (FIG. 13F)
Protocol: Cells were treated with cycloheximide (CHX) for the indicated times before lysis.

[7] = biological target: T3, Cereblon (CRBN), human, wild type, …; assay: heading of FIG. 16: FLAG immunoprecipitation from HEK293T cells (16A) and GST-CRBN pull-down (16B)

B1: CD147 (Basigin, EMMPRIN), endogenous (other, human, UniProt P35613-2 22-269, looked up)
chain: AAGTVFTTVEDLGSKILLTCSLNDSATEVTGHRWLKGGVVLKEDALPGQKTEFKVDSDDQWGEYSCVFLPEPMGTANIQLHGPPRVKAVKSSEHINEGETAMLVCKSESVPPVTDWAWYKITDSEDKALMNGSESRFFVSSSQGRSELHIENLNMEADPGQYRCNGTSSKGSDQAIITLRVRSHLAALWPFLGIVAEVLVLVTIIFIYEKRRKPEDVLDDDDAGSAPLKSSGQHQNDKGKNVRQRNSS
modifications: core-glycosylated (CG) and high-glycosylated (HG) forms
notes: as for B4
B1: no binding [1]; binds [2]; binds [3]. B1: binds [4].

B2: HA-CD147 (other, human, UniProt P35613-2 22-269, looked up)
chain: AAGTVFTTVEDLGSKILLTCSLNDSATEVTGHRWLKGGVVLKEDALPGQKTEFKVDSDDQWGEYSCVFLPEPMGTANIQLHGPPRVKAVKSSEHINEGETAMLVCKSESVPPVTDWAWYKITDSEDKALMNGSESRFFVSSSQGRSELHIENLNMEADPGQYRCNGTSSKGSDQAIITLRVRSHLAALWPFLGIVAEVLVLVTIIFIYEKRRKPEDVLDDDDAGSAPLKSSGQHQNDKGKNVRQRNSS
notes: Expressed in HEK 293T cells; not shown: HA tag
B2: binds [5].

B3: FLAG-CD147 (other, human, UniProt P35613-2 22-269, looked up)
chain: AAGTVFTTVEDLGSKILLTCSLNDSATEVTGHRWLKGGVVLKEDALPGQKTEFKVDSDDQWGEYSCVFLPEPMGTANIQLHGPPRVKAVKSSEHINEGETAMLVCKSESVPPVTDWAWYKITDSEDKALMNGSESRFFVSSSQGRSELHIENLNMEADPGQYRCNGTSSKGSDQAIITLRVRSHLAALWPFLGIVAEVLVLVTIIFIYEKRRKPEDVLDDDDAGSAPLKSSGQHQNDKGKNVRQRNSS
notes: Expressed in HEK293T cells; The tag is written first only because the name prints it so; also called FLAG-tagged CD147; not shown: FLAG tag
B3: binds [6]; binds [7].

B4: no binding [1].
